The record followed here is publication PMC5383425, “Differential CLE peptide perception by plant receptors implicated from structural and functional analyses of TDIF-TDR interactions” (PLoS ONE, 2017).

The target in one assay is T1, ecdTDR S187A mutant (Arabidopsis thaliana, UniProt Q9FII5 30-642, S187A).
T1 construct: TDR/PXY of A. thaliana, extracellular domain, residues 30-642; source: High Five insect cells (baculovirus), secreted, purified as the wild type (Ni-NTA, size-exclusion chromatography)
T1 sequence (looked up): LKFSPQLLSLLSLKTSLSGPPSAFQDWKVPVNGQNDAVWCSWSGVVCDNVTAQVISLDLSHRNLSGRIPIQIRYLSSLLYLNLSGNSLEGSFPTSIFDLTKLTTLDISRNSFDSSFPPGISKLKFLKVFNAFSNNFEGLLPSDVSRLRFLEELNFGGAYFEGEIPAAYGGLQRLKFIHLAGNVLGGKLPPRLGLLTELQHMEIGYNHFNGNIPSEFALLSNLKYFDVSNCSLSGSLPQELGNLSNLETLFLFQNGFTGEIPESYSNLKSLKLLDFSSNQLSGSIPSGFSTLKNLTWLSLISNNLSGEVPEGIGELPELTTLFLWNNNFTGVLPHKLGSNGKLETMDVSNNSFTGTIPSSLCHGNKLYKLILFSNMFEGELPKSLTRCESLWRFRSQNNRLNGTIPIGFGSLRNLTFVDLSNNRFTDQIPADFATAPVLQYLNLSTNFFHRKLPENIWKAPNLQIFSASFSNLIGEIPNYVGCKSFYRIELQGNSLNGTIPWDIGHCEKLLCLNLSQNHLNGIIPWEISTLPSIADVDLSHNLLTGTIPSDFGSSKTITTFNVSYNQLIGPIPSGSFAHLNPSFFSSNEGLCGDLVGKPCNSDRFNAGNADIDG
The experiment in a line: ITC; 0.5–1 mM peptide titrated into 10–40 μM ecdTDR; 25°C; 10 mM sodium citrate, 100 mM NaCl, pH 5.5; fitted to one set of binding sites; MicroCal Auto-iTC200. The note with it: both partners purified. In general terms: ITC needs no label: the signal is the heat of the interaction.

Another assay deals with T2, ecdTDR Y188A mutant (Arabidopsis thaliana, UniProt Q9FII5 30-642, Y188A).
T2 construct: TDR/PXY of A. thaliana, extracellular domain, residues 30-642; source: High Five insect cells (baculovirus), secreted, purified as the wild type (Ni-NTA, size-exclusion chromatography)
T2 sequence (looked up): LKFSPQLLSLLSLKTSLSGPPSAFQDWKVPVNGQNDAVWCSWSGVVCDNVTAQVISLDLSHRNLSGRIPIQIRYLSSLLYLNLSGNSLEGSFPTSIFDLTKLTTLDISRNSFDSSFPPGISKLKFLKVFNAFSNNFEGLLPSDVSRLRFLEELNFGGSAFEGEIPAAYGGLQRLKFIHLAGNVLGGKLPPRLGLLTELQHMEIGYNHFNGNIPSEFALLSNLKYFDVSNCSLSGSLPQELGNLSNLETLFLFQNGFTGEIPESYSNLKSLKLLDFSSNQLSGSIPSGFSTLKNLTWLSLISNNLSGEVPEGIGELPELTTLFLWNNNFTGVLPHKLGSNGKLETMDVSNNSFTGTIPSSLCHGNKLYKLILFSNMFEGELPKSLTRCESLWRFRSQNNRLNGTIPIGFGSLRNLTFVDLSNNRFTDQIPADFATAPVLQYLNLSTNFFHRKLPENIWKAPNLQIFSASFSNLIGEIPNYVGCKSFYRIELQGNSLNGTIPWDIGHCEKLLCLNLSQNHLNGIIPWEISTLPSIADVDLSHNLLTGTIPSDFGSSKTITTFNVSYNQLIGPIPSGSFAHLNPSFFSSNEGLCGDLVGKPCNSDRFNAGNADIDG
The description is as above. The note with it: both partners purified.

Assay [1] addresses T3, ecdTDR Y253 alanine mutant (Arabidopsis thaliana, UniProt Q9FII5 30-642, alanine substitution of Y253).
T3 construct: TDR/PXY of A. thaliana, extracellular domain, residues 30-642; The text says only 'mutational studies' of Y253; source: High Five insect cells (baculovirus), secreted, purified as the wild type (Ni-NTA, size-exclusion chromatography)
T3 sequence (looked up): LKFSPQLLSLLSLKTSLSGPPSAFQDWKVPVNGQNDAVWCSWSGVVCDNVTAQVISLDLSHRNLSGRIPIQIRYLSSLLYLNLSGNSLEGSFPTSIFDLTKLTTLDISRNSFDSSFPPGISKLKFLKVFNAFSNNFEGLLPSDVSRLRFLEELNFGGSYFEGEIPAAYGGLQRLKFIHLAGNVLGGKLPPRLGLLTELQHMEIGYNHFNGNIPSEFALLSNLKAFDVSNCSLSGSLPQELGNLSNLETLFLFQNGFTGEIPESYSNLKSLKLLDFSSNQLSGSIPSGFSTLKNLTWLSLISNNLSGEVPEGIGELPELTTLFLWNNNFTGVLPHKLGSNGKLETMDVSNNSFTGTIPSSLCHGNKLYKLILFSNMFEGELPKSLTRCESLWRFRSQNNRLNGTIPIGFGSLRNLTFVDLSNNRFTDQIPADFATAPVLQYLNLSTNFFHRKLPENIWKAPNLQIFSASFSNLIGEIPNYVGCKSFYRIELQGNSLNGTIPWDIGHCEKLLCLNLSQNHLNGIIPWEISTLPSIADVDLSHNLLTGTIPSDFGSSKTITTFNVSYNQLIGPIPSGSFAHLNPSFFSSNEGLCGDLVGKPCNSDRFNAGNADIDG
The assay is described as above. The conditions noted are these: both partners purified.

Assay [2] deals with T4, extracellular domain of A. thaliana TDR (residues 30-642) (Arabidopsis thaliana, UniProt Q9FII5 30-642, N-glycosylated at N111, N356, N378, N471 and N525 (one GlcNAc visible on each in the structures)).
T4 chain: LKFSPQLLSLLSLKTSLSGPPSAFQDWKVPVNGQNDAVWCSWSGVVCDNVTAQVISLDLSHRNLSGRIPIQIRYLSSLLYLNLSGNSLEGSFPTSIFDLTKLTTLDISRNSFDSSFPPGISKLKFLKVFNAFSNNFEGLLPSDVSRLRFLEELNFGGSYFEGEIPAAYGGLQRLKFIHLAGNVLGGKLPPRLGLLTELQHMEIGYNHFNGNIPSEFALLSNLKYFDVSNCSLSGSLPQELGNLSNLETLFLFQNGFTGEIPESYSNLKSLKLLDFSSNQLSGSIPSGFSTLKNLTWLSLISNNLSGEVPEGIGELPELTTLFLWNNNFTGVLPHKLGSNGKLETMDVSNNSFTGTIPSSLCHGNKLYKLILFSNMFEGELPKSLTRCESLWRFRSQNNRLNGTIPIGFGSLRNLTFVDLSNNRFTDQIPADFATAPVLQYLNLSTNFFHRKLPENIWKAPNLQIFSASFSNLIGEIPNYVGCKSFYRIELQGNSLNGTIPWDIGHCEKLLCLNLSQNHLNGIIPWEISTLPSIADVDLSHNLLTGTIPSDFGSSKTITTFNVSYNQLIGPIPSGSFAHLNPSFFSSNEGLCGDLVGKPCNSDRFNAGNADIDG
The experiment in a line: ITC.

One may read the Kd as the constant that tells how readily two partners part at equilibrium. A high value points to lower affinity.

Square brackets hold non-standard residues; d marks the D form. Ends that are not written are not given here. Hyp = O=C(O)[C@@H]1C[C@@H](O)CN1

B1: Tracheary Element Differentiation Inhibitory Factor (TDIF) peptide (peptide)
peptide: HEV[Hyp]SG[Hyp]NPISN
notes: TDIF, the 12-residue CLE peptide processed from CLE41 and CLE44 of A. thaliana; printed as HEV(Hyp)SG(Hyp)NPISN; numbers count on: the 12-residue peptide; CLE44 encodes the same peptide; also called wild type TDIF; wtTDIF; source: synthetic peptide (peptide 2.0)
With B1, the binding result (with ecdTDR S187A mutant; with ecdTDR Y188A mutant; in assay [1]) was “binds” each time. Besides, in assay [2], the Kd came to 103 nM.
